Results published in the supplement of paper PMC11246515.
± gives the standard deviation of the averaged measurements.

Test: total protein half-life in vivo (active degradation + dilution); higher = more stable protein
[1] = E. coli NCM3722 delta-clpP delta-lon delta-hslV, growth: N-lim chemostat, doubling time 6 h
[2] = E. coli NCM3722 delta-clpP, growth: N-lim chemostat, doubling time 6 h
[3] = E. coli NCM3722 delta-hslV, growth: N-lim chemostat, doubling time 6 h
[4] = E. coli NCM3722 delta-lon, growth: N-lim chemostat, doubling time 6 h
[5] = E. coli NCM3722 delta-smpB, growth: N-lim chemostat, doubling time 6 h
[6] = wild type E. coli NCM3722, growth: C-lim chemostat, doubling time 3 h
[7] = wild type E. coli NCM3722, growth: C-lim chemostat, doubling time 6 h
[8] = wild type E. coli NCM3722, growth: C-lim chemostat, doubling time 12 h
[9] = wild type E. coli NCM3722, growth: N-lim chemostat, doubling time 6 h
[10] = wild type E. coli NCM3722, growth: N-lim chemostat, doubling time 12 h
[11] = wild type E. coli NCM3722, growth: P-lim chemostat, doubling time 6 h
[12] = wild type E. coli NCM3722, growth: P-lim chemostat, doubling time 12 h

Sequence	total protein half-life in vivo [1]	total protein half-life in vivo [2]	total protein half-life in vivo [3]	total protein half-life in vivo [4]	total protein half-life in vivo [5]	total protein half-life in vivo [6]	total protein half-life in vivo [7]	total protein half-life in vivo [8]	total protein half-life in vivo [9]	total protein half-life in vivo [10]	total protein half-life in vivo [11]	total protein half-life in vivo [12]
MTEPLTETPELSAKYAWFFDLDGTLAEIKPHPDQVVVPDNILQGLQLLATASDGALALISGRSMVELDALAKPYRFPLAGVHGAERRDINGKTHIVHLPDAIARDISVQLHTVIAQYPGAELEAKGMAFALHYRQAPQHEDALMTLAQRITQIWPQMALQQGKCVVEIKPRGTSKGEAIAAFMQEAPFIGRTPVFLGDDLTDESGFAVVNRLGGMSVKIGTGATQASWRLAGVPDVWSWLEMITTALQQKRENNRSDDYESFSRSI	5.34 ± 2.1 h	3.13 ± 0.27 h	2.4 ± 0.1 h	2.67 ± 0.028 h	2.32 ± 0.11 h	2.55 h	4.3 ± 0.26 h	6.12 ± 0.22 h	2.5 ± 0.13 h	3.59 ± 0.55 h	3.2 ± 1 h	6.94 ± 0.087 h
MTESVARLRGEQLTLGYGKYTVAENLTVEIPDGHFTAIIGPNGCGKSTLLRTLSRLMTPAHGHVWLDGEHIQHYASKEVARRIGLLAQNATTPGDITVQELVARGRYPHQPLFTRWRKEDEEAVTKAMQATGITHLADQSVDTLSGGQRQRAWIAMVLAQETAIMLLDEPTTWLDISHQIDLLELLSELNREKGYTLAAVLHDLNQACRYASHLIALREGKIVAQGAPKEIVTAELIERIYGLRCMIIDDPVAGTPLVVPLGRTAPSTANS	–	–	–	–	3.69 h	3.78 h	5.57 h	> 16 h	–	7.66 h	–	–
MTETIKVSESLELHAVAENHVKPLYQLICKNKTWLQQSLNWPQFVQSEEDTRKTVQGNVMLHQRGYAKMFMIFKEDELIGVISFNRIEPLNKTAEIGYWLDESHQGQGIISQALQALIHHYAQSGELRRFVIKCRVDNPQSNQVALRNGFILEGCLKQAEFLNDAYDDVNLYARIIDSQ	4.21 ± 0.68 h	4.2 ± 0.35 h	3.75 ± 0.27 h	3.31 ± 0.19 h	4.22 ± 0.22 h	3.18 ± 0.37 h	5.79 ± 0.19 h	8.82 ± 2.3 h	4.47 h	6.48 ± 0.098 h	5.61 ± 0.16 h	13.7 ± 0.43 h
MTFIKGLPLMLLTISLGCNAAVQPDRTRIVFNANDKATSLRIENQSDKLPYLAYSWIENEKGEKSDALLVALPPIQRLEPKATSQVRVVKQASTTQLPGDRETLFFYNMREIPPAPDKSSDHAILQVAIQSRIKLFWRPAALRKKAGEKVELQLQVSQQGNQLTLKNPTAYYLTIAYLGRNEKGVLPGFKTVMVAPFSTVNTNTGSYSGSQFYLGYMDDYGALRMTTLNCSGQCRLQAVEAK	> 8 h	–	–	–	–	–	–	–	–	14.3 h	–	–
MTGMTNVTKLASEPSGQEFLVFTLGDEEYGIDILKVQEIRGYDQVTRIANTPAFIKGVTNLRGVIVPIVDLRIKFSQVDVDYNDNTVVIVLNLGQRVVGIVVDGVSDVLSLTAEQIRPAPEFAVTLSTEYLTGLGALGDRMLILVNIEKLLNSEEMALLDSAASEVA [P0A964]	5.19 ± 0.61 h	4.56 ± 0.37 h	5.25 h	5.4 ± 0.52 h	> 8 h	1.741 ± 0.013 h	1.86 ± 0.086 h	3.67 ± 1.6 h	1.74 h	2.23 h	0.859 h	9.75 h
MTGQSSSQAATPIQWWKPALFFLVVIAGLWYVKWEPYYGKAFTAAETHSIGKSILAQADANPWQAALDYAMIYFLAVWKAAVLGVILGSLIQVLIPRDWLLRTLGQSRFRGTLLGTLFSLPGMMCTCCAAPVAAGMRRQQVSMGGALAFWMGNPVLNPATLVFMGFVLGWGFAAIRLVAGLVMVLLIATLVQKWVRETPQTQAPVEIDIPEAQGGFFSRWGRALWTLFWSTIPVYILAVLVLGAARVWLFPHADGAVDNSLMWVVAMAVAGCLFVIPTAAEIPIVQTMMLAGMGTAPALALLMTLPAVSLPSLIMLRKAFPAKALWLTGAMVAVSGVIVGGLALLF	–	–	–	–	4.43 ± 0.43 h	–	–	–	–	5.72 h	–	–
MTHFSQQDNFSVAARVLGALFYYAPESAEAAPLVAVLTSDGWETQWPLPEASLAPLVTAFQTQCEETHAQAWQRLFVGPWALPSPPWGSVWLDRESVLFGDSTLALRQWMREKGIQFEMKQNEPEDHFGSLLLMAAWLAENGRQTECEELLAWHLFPWSTRFLDVFIEKAEHPFYRALGELARLTLAQWQSQLLIPVAVKPLFR	3.98 ± 0.19 h	4.54 ± 1.1 h	4.18 ± 0.73 h	5.74 ± 1.5 h	4.5 ± 0.51 h	3 ± 0.17 h	5.45 h	11.7 ± 1.3 h	4.4 ± 0.41 h	7.72 ± 1.9 h	5.41 ± 0.39 h	11.3 ± 0.19 h
MTHIRIEKGTGGWGGPLELKATPGKKIVYITAGTRPAIVDKLAQLTGWQAIDGFKEGEPAEAEIGVAVIDCGGTLRCGIYPKRRIPTINIHSTGKSGPLAQYIVEDIYVSGVKEENITVVGDATPQPSSVGRDYDTSKKITEQSDGLLAKVGMGMGSTVAVLFQSGRDTIDTVLKTILPFMAFVSALIGIIMASGLGDWIAHGLAPLASHPLGLVMLALICSFPLLSPFLGPGAVIAQVIGVLIGVQIGLGNIPPHLALPALFAINAQAACDFIPVGLSLAEARQDTVRVGVPSVLVSRFLTGAPTVLIAWFVSGFIYQ	–	5.44 h	–	5.5 h	–	2.06 ± 0.099 h	4.93 h	–	4.5 h	–	–	–
MTHVCSVILIRRSFDIYHEQQKISLHNESILLLEKNLADDFAFCSPDTRRLDIDELTVCHYLQNIRQLPRNLGLHSKDRLLINQSPPMPLVTAIFDSFNESGVNSPILSNMLYLSCLSMFSHKKELIPLLFNSISTVSGKVERLISFDIAKRWYLRDIAERMYTSESLIKKKLQDENTCFSKILLASRMSMARRLLELRQIPLHTIAEKCGYSSTSYFINTFRQYYGVTPHQFAQHSPGTFS	5.33 ± 0.16 h	1.51 h	–	–	0.628 h	–	–	–	0.171 h	–	–	–
MTIFDNYEVWFVIGSQHLYGPETLRQVTQHAEHVVNALNTEAKLPCKLVLKPLGTTPDEITAICRDANYDDRCAGLVVWLHTFSPAKMWINGLTMLNKPLLQFHTQFNAALPWDSIDMDFMNLNQTAHGGREFGFIGARMRQQHAVVTGHWQDKQAHERIGSWMRQAVSKQDTRHLKVCRFGDNMREVAVTDGDKVAAQIKFGFSVNTWAVGDLVQVVNSISDGDVNALVDEYESCYTMTPATQIHGKKRQNVLEAARIELGMKRFLEQGGFHAFTTTFEDLHGLKQLPGLAVQRLMQQGYGFAGEGDWKTAALLRIMKVMSTGLQGGTSFMEDYTYHFEKGNDLVLGSHMLEVCPSIAAEEKPILDVQHLGIGGKDDPARLIFNTQTGPAIVASLIDLGDRYRLLVNCIDTVKTPHSLPKLPVANALWKAQPDLPTASEAWILAGGAHHTVFSHALNLNDMRQFAEMHDIEITVIDNDTRLPAFKDALRWNEVYYGFRR	3.94 ± 0.26 h	3.03 ± 0.081 h	3.07 h	3.405 ± 0.014 h	3.25 ± 0.17 h	2.84 ± 0.36 h	5.77 ± 0.19 h	9.63 ± 1.2 h	3.26 h	–	5.05 ± 0.14 h	11.6 ± 1.2 h
MTIHKKGQAHWEGDIKRGKGTVSTESGVLNQQPYGFNTRFEGEKGTNPEELIGAAHAACFSMALSLMLGEAGFTPTSIDTTADVSLDKVDAGFAITKIALKSEVAVPGIDASTFDGIIQKAKAGCPVSQVLKAEITLDYQLKS [P0C0L2]	5.71 ± 0.14 h	5.45 ± 0.62 h	5.59 ± 0.41 h	5.84 ± 0.083 h	4.963 ± 0.042 h	3.08 ± 0.62 h	6.63 ± 0.81 h	12.1 ± 0.22 h	5.3 ± 0.28 h	9.59 ± 0.6 h	5.84 ± 0.082 h	12.6 ± 0.93 h
